Source: the RNAGym collection of RNA variant scans (doi:10.1073/pnas.2313332121)
This sample holds only a part of the variants without activity.

B1: TPR 5TU (parent)
chain: GGAUCUUCUCGAUCUAACAAAAAAGACAAAUCUGCCACAAAGCUUGAGAGCAUCUUCGGAUGCAGAGGCGGCAGCCUUCGGUGGCGCGAUAGCGCCAACGUUCUCAACUAUGACACGCAAAACGCGUGCUCCGUUGAAUGGAGUUUAUCAUG

Variants of: B1
Test: polymerase ribozyme fitness, log enrichment relative to wild type (log ratio); higher = more active; in vitro selection for triplet polymerase activity
Summary of the method: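 In triplicate, a single round of in vitro selection was run on each mutant library, PCR-built and transcribed, covering one subunit of a heterodimeric triplet polymerase ribozyme. Frozen incubation at −7 °C followed annealing with a biotinylated primer, partner subunit and triplets, and extended constructs were then gel-excised, streptavidin-captured and taken through RT-PCR. Fitness is the logarithm of genotype enrichment over wild-type enrichment, from inverse-variance-weighted replicate averages of Illumina-sequenced inputs and outputs. […] only genotypes with ≥10 input reads and ≥1 read per output were kept.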

**Q.** For GGAUCUUCUCGAUCUAACAAAAAAGACAAAUCUGCCACAAAGCUUGAGAGCAUCUUCGAAUGCAGAGGCGGCGGCCUUCGGUGGCGCGAUAGUGCCAACGUUCUCGACUAUGACACGCAAAACGCGUGCUCCGUUGAAUGGAGGUCAUCAUG [G59A A73G C93U A106G U144G U146C], which “polymerase ribozyme fitness (log ratio)” value is on record?
**A.** -0.726

**Q.** For GGAUCUUCUCGAUGUAACAAAAAAGACAAAUCUGCCACAAAGCUUGAUAGCAUCUUCGGAUGCAGAGGCGGCAGCUGUCGGUGGCGCGAUCGCGCCAAGGUUCUGAACUAUGACACGCAAAGGGCGUGGUCCGUGGAAUGGAGUUUAUCAUG [C14G G48U C76U U77G A91C C99G C105G A122G C123G C129G U135G], which “polymerase ribozyme fitness (log ratio)” value is on record?
**A.** ≤ -4.2

**Q.** With GGAUCUUCUCGAUCUAACAAAAAAGACAAAUCUGCCACAAAGCUUGAAAGCAUCUUCGGAUGCAGAGGCGGCAGCCUUCGGUGGCGCGAUAGCGCCAACGUUCUCAACUAUGCCACGCAAAACGCGUGCUCCGCUGCAUAGAGUUUAGCAUG [G48A A113C U134C A137C G140A U148G] as the variant, how does the “polymerase ribozyme fitness (log ratio)” value read?
**A.** ≤ -4.2

**Q.** Which “polymerase ribozyme fitness (log ratio)” value does the source give for GGAUCUUCUCGAUCUAACAAAAAAGACAAAUCUGCCACAAAGCUUGAGAGCAUCUUCGGAUGCAGAGGCGGCAGCCUUCGGUGGCUCGAUAGCGCCAACGUUCUCAACUAUGACACGCAAAACGCGUGCUCCGUUGAAUGGAGUUUAUCAUU [G86U G152U] here?
**A.** ≤ -4.2

**Q.** Which “polymerase ribozyme fitness (log ratio)” value does the source give for GGAUCUUCUCGAUCUAACAAAAAAGACAAAUCUGCCACAAAGCUUGAGAGCAUCUUCGGAUGCAGAGGCGGCAGCCUUCGGUGGCGCGAUAGCGCCAACGUUAUCAACUAUGACACGCAUAACAUGUGCUCCGUUGAAUGGAGUUUAUCAUG [C103A A120U G124A C125U] here?
**A.** -2.03

**Q.** For GGUUCUUCUCGAUCUGACAAAAAAGACAAAUCUGCAACAAAGCUUGAGAGCAUCUUCGGAUGCAGAGGCGGCAGCCUUCGGUGGCGCGAUACCGCCAACGUUCUCAACUAUGACACGCAAAACCCGUGCUACGUUUAAUGGAGUUUAUCAUG [A3U A16G C36A G92C G124C C131A G136U], which “polymerase ribozyme fitness (log ratio)” value is on record?
**A.** ≤ -4.2

**Q.** For GGAUCUUCUCGGUCUUACAAAAAAGACAAAUCUGCCACAAACCUUGAGAGCAUCUUCGGAUGCAGAGGCGGCAGUCUUCGGUGGCGCGAUAGCGCCAACGUUCUCAACUAUGACACGCAAAACGCGUGUUCCGUUGAAUGGAGUUUAUCAUG [A12G A16U G42C C75U C129U], which “polymerase ribozyme fitness (log ratio)” value is on record?
**A.** ≤ -4.2

**Q.** Which “polymerase ribozyme fitness (log ratio)” value does the source give for GGAUCUUCCCUAUCUGACAAAAAAGACAAAUCUGCCACAAAGCUUGAGAGGAUCUUCGGAUGCAGAGGCGGCAGCCUUCGGUGGCGCGAUAGGGCCAACGUUCUCAACUAUUACACGCAAAACGCGUGCUCCGUUGAAUGGAGUUUAUCAUG [U9C G11U A16G C51G C93G G112U] here?
**A.** ≤ -4.2

**Q.** Which “polymerase ribozyme fitness (log ratio)” value does the source give for GGAUCUUCUCGAUCUAACAAAAAAGACAAAUCUGCCACAAAGCUUGAGAGCAUCUUCGGAUGCAGAGGCGGCAGCCUUCAGUGGCGCGAUAGGGCCGACGUUCUCAACUAUGACCCGCAAAACGCGUGCUCCGUUGAAUGGAGUUUAUCAUG [G80A C93G A97G A115C] here?
**A.** -3.64

**Q.** Which “polymerase ribozyme fitness (log ratio)” value does the source give for GGAUUUUCUCGAUCUAACUAAAAAGACAAAUCUGCCACAAAGCUUGAGAGCAUCUUCGGAUGCAGAGGCGGCAGCCUUCGGUUGCGCGAUAUCGCCAACGUUCUCAACUAUGACACGCAAAAAGCUUGCUCCGUUGAAUGGAGUUGAUCAUG [C5U A19U G83U G92U C123A G126U U146G] here?
**A.** -4.19

**Q.** With GGAUCUUCUCGAUCUAACAAAAAAGACAAAUCUGCCACAAAGCUUGAGAGCAUCUUCAGAUGCAGAGGCGGCAGCCUUCGCUGACGCGAUAGCGCCAACGUUCUCAACUAUGACACGCAAAACGCGUGCUCCCUUGAAUGGAGGUUAUCAUG [G58A G81C G84A G133C U144G] as the variant, how does the “polymerase ribozyme fitness (log ratio)” value read?
**A.** -0.672

**Q.** For GGAUCUUCUCGAUCUAACAAAAAAGACAAAUCUGCCACAAAGCUUGAGAUCAUCUUCGGAUGCAGAGGCGGCAGCAUUCGGUGGCGCGAUAGCGCCAACGUUCUCAACUAUGACACGCAAAACGCUUGCUCCGUUGAAUGGAGUUUAGCAUG [G50U C76A G126U U148G], which “polymerase ribozyme fitness (log ratio)” value is on record?
**A.** ≤ -4.2

**Q.** Which “polymerase ribozyme fitness (log ratio)” value does the source give for GGAUCUUCUAGAUCUAACAAAAAAGACAAAUCUGCCACAAAGCUUGAGAGCCUCUUCGGAUGUAGAGGCGGCAGCCUUCGGUGGCGCGAUGGCGCCAACGUUCUCAACUAUGUCACGCAAAACGCGUGCUCCGUUGAAUGGAGUUUAUCAUG [C10A A52C C63U A91G A113U] here?
**A.** ≤ -4.2

**Q.** Which “polymerase ribozyme fitness (log ratio)” value does the source give for GGAUCUUCUCGAUCUAACAAAAAAGAUAAAUCUGCCACAAAGCUUGGGAGCAUCUUCGGAUGCAGAGGCGGCAGCCAUCGGUGGUGCGAUAGCGCCAACGUUCUCAACUAUGACACGCAAAACGCGUGCUCCGUUGAAUGGAGUUCAUCAUG [C27U A47G U77A C85U U146C] here?
**A.** ≤ -4.2

**Q.** For GGAUCUUCUCGAUCUAACAAAAGAGAGAAAUCUGCCACAGAGCUUGAGAGCAUCUUCGGAAGCAGAGGCGGCAGCCUUCGGUGGCGCGAUAGCGCCAACGUUCUCAACUAUGACACGCAAAACGCGUGCUGCGUUGAAUGGAUUUUAUCAUG [A23G C27G A40G U61A C131G G143U], which “polymerase ribozyme fitness (log ratio)” value is on record?
**A.** ≤ -4.2

**Q.** Which “polymerase ribozyme fitness (log ratio)” value does the source give for GGAUCUUCUCGAUCUAACAAAAAAGACAAAUCUGCCACAAAGCUUGAGAGCAUCUUCGGAUGCAGAGGCGGCAGCCUUCGGUGGCGCGAUAGCGCGAACGUUCUCAACUAUGACACGCAAAACGCGUGCUCCGUUGAAUGUAGUUUAUCAUG [C96G G141U] here?
**A.** 0.463

**Q.** For GGAUCUUCUCGUUCUACCAAAAAGGACAAAUCUGCCACAAAGCUUGAGAGCAUCUUCGGAUGCAGAGGCGGCAGCCUUUGGUGGCGCGAUAGCGCCAACGUUCUCAACUAUGACACGUAAAACGCGUGCUCCGUUGAAUGGAGUUUAUCAUG [A12U A17C A24G C79U C118U], which “polymerase ribozyme fitness (log ratio)” value is on record?
**A.** ≤ -4.2

**Q.** For GGAUCUUCUCGAUCUAACAAAAAAGACAAAUCUGCCACAAAGCUUGAGAGCAUCUACGGAUGCAGAGGCGGCAGCCUUCGGUGGUGCGAUAGCGCCAACGUUCUCAACUAUGAAACGCAAAACGCGUGCUCCGUUGAAUGCAGUUUAUCAUG [U56A C85U C114A G141C], which “polymerase ribozyme fitness (log ratio)” value is on record?
**A.** ≤ -4.2

**Q.** Which “polymerase ribozyme fitness (log ratio)” value does the source give for GGAUCUUCUCGAUCUAACAAAAAAGACAAAUCUGCCACAAAGCUUGAGAGCAACUUCGGAUGCAGAGGCGGCAGCCUUCGGUGGCGUGAUAGCGCCAACGUUCUCAACUAUGACACGCAAAACGCGUGCUCCGUUGAAUGGAGUUUAUCUUG [U53A C87U A150U] here?
**A.** -0.451
